This series concerns the molecule itself. Description: native gel, in-gel butyrylcholinesterase activity staining of mouse serum (self-association: dimer, tetramer).

The values below come from US20190144884A1 (University of Pennsylvania, published 2019).

B1: human butyrylcholinesterase (hBChE) expressed from AAV8.UbC.hIL2.BChE C1.IRES.PRIMA1.SV40 vector (enzyme)
chain: HTEDDIIIATKNGKVRGMNLTVFGGTVTAFLGIPYAQPPLGRLRFKKPQSLTKWSDIWNATKYANSCCQNIDQSFPGFHGSEMWNPNTDLSEDCLYLNVWIPAPKPKNATVLIWIYGGGFQTGTSSLHVYDGKFLARVERVIVVSMNYRVGALGFLALPGNPEAPGNMGLFDQQLALQWVQKNIAAFGGNPKSVTLFGESAGAASVSLHLLSPGSHSLFTRAILQSGSFNAPWAVTSLYEARNRTLNLAKLTGCSRENETEIIKCLRNKDPQEILLNEAFVVPYGTPLSVNFGPTVDGDFLTDMPDILLELGQFKKTQILVGVNKDEGTAFLVYGAPGFSKDNNSIITRKEFQEGLKIFFPGVSEFGKESILFHYTDWVDDQRPENYREALGDVVGDYNFICPALEFTKKFSEWGNNAFFYYFEHRSSKLPWPEWMGVMHGYEIEFVFGLPLERRDNYTKAEEILSRSIVKRWANFAKYGNPNETQNNSTSWPVFKSTEQKYLTLNTESTRIMTKLRAQQCRFWTSFFPKVLEMTGNIDEAEWEWKAGFHRWNNYMMDWKNQFNDYTSKKESCVGL
notes: Secreted into the serum of vector-injected RAG KO mice; also called hBuChE; Hu BChE
On to B1, for which the binding result is recorded as “binds”.
